Reference: the RNAGym collection of RNA variant scans (doi:10.7554/elife.80360)

B1: Hairpin Ribozyme (parent)
chain: GUCCUCUUUCACGUGCGCGUGAAAGAGAGAAGUGAACCAGAGAAACACACGUUGUGGUAUAUUACCUGGUA

Variants of: B1
Assay: self-cleavage, relative activity (ratio to wild type); higher = more cleavage; co-transcriptional

Variant | self-cleavage
C66A U70A | 0.279
A45U U52C | 0.103
A61U U62A | 0.139
U14G G57A | 0.146
U9A A35G | 0.744
A26G U33A | 0.135
A39C C65A | 0.233
G27A C65U | 0.145
G25C A35G | 0.578
U8C G15C | 0.565
C6A U52C | 0.619
A45U G68C | 0.202
A35G A61C | 0.0992
G54A C66U | 0.272
U7A G68C | 0.146
A26G A43U | 0.121
A23G A47G | 0.171
U9G U55C | 0.163
G1U U70C | 0.142
C6U G19A | 0.793
A24U U52G | 0.744
U7G G34A | 0.984
C38G U62A | 0.127
G27C C46G | 0.152

Variant | self-cleavage
C3U G69U | 0.106
A28C A44G | 0.0991
G13A A44C | 0.195
A26U | 0.683
G15C G68U | 0.235
U52A U53A | 0.817
G34U A41C | 1.55
A26U U52G | 0.442
C16G A49U | 0.221
G56U U62C | 0.122
C3U U63C | 0.264
U14C U63C | 0.392
A11C A41U | 1.29
U53C G54U | 0.573
G42A A64G | 0.141
G57A G69U | 0.121
C6U U60C | 0.794
C16A A61U | 0.226
U70G A71C | 1.74
C4U C48U | 0.142
A35U U60A | 0.426
G57C A71U | 0.157
G19C G54A | 0.432
G21U A28G | 0.98

Variant | self-cleavage
G13C U52A | 0.658
G1C A59U | 0.114
C18G G42U | 0.279
U7G A64G | 0.461
U62G | 0.179
G25C G32A | 0.0816
C12U A43C | 0.105
C38U C46U | 0.0928
C48G A71U | 0.14
A22G U70C | 0.57
U9A C37U | 0.317
U2C A28C | 0.117
U2C A28G | 0
A23G U33A | 0.131
G15A G27U | 0.373
C37A U60C | 0.337
A31U C46A | 0.236
C48G U52A | 0.135
A31C C50U | 0.0888
U20C C50A | 0.206
U33A A45G | 0.127
C10A G56A | 0.133
A26C G51A | 0.67
G29U U33C | 0.165

Variant | self-cleavage
A23U U33G | 0.158
C4A G29U | 0.111
A31C C48A | 0.115
C6U C46A | 0.0705
C48U U62A | 0.201
U5A A44G | 0.121
G15C C16G | 1.06
C12G C18G | 0.727
C6G C65G | 0.23
C4U U67G | 0.143
U20A G40U | 0.153
C6U C37U | 0.6
A39G C46G | 0.113
U20G | 0.879
G40A U67G | 0.147
U20C A47G | 0.159
G27U U33A | 0.121
G42A A71G | 0.296
U20G C37A | 0.186
G40C A41G | 0.163
U2A U14C | 0.265
C18A A47U | 0.181
U5C C16U | 0.71
U5C C16G | 0.516

Variant | self-cleavage
A24U G51C | 0.805
G19U G68U | 0.338
A26G A39U | 0.407
G25C C65A | 0.382
A23G C38U | 0.43
C6G G69C | 0.115
G15U C66A | 0.367
G42A G51A | 0.25
G21U G54C | 0.438
U8G G25C | 0.0293
C16U G29C | 0.1
U52G C66G | 0.215
C3U G51C | 0.402
C3U A43G | 0.138
G32C A35U | 0.132
G21U A43C | 0.146
C16A A28C | 0.569
C18U C50G | 0.217
G27C U62A | 0.205
C48G U55A | 0.148
A28C A35G | 0.445
G21A G27C | 0.195
C3G G57U | 0.0635
C6G G29A | 0.138

Variant | self-cleavage
U20G A71C | 1.25
A49U G69A | 0.136
C18A A30U | 0.16
A31G C46A | 0.155
A23U A26C | 0.545
G15U A26G | 0.895
U8A G40U | 0.109
G32A U60C | 0.256
U5A A31G | 0.212
C66G | 0.181
A30C A47C | 0.156
C4G A22C | 0.206
G40A A61C | 0.14
G32C U52A | 0.0962
U5A U20G | 0.566
C16U U62G | 0.107
A22U C65A | 0.903
C12A A61C | 0.239
G34A U70G | 0.979
C4G A36U | 0.118
A39G G57A | 0.129
U53A U55A | 0.0855
A26G G54A | 0.605
G32C G51U | 0.154

Variant | self-cleavage
A31C A49C | 0.149
U14G A71C | 1.11
G17C G56C | 0.171
U5G G51C | 0.221
C10U U70G | 0.698
G27C C65U | 0.159
U14G A45C | 0.243
C6G C18U | 0.613
C4A A23U | 0.251
U9G U63A | 0.102
G40C C65G | 0.156
A47U A59U | 0.194
C48G C50A | 0.0785
U14A U33C | 0.153
G13C U55G | 0.107
G42U U55G | 0.165
G29A G34U | 0.131
G34U G69U | 1.1
G15C A26U | 0.777
A41C A71C | 1.53
A47G U52A | 0.0547
U9G A71C | 1.2
C50G C65A | 0.463
G17A G51U | 1.06

Variant | self-cleavage
C46A C48U | 0.138
C46A C48G | 0.211
G25U C50A | 0.283
A28U C48A | 0.131
U2A C38A | 0.115
C37U C38G | 0.0604
A44G U58G | 0.198
G13U G54C | 0.293
A30G U67C | 0.119
G17U U63A | 0.128
C3A U9A | 0.401
A26G U55G | 0.153
G34C A41G | 1.31
A44U C48G | 0.12
G13C A59U | 0.132
G13C A28U | 0.252
A59U U62G | 0.262
U67A G69C | 0.258
A11U G29A | 0.137
U9G G32U | 0.123
C3U C46A | 0.121
U8A G19U | 0.661
A11C C46U | 0.255
A26U U63A | 0.127

Variant | self-cleavage
U8C C16G | 0.651
U53C U55C | 0.329
A26U A36C | 0.343
A23U C65U | 0.402
G21A G51C | 0.771
G1U G69A | 0.0764
G25A C48G | 0.0903
U14G G56U | 0.122
C3G A39C | 0.202
G56C G57A | 0.115
U33A G56C | 0.11
G15C G54A | 0.532
G25A U53C | 0.659
A30U U60C | 0.306
G57A U60G | 0.21
A47G A71C | 0.599
U14C U58A | 0.763
A35G G57U | 0.205
G17C G51A | 0.718
A36C G69C | 0.304
C3G G51A | 0.369
G32U A61C | 0.157
C6U A28G | 0.734
A26G C50G | 0.211

Variant | self-cleavage
C3A A30C | 0.14
U7A C65U | 0.349
A47C U52G | 0.231
A49C C65U | 0.08
U9A A49U | 0.179
A11U C48U | 0.154
C50A G51C | 0.36
G25U G57A | 0.145
U20C A49G | 0.524
C3G U5A | 0.15
G27U A71U | 0.166
A35U U62A | 0.158
G13C C65U | 0.243
U14C U20A | 0.774
G34C A35U | 1.61
G27U A49U | 0.141
A22G G34C | 1.52
U5G G32C | 0.091
A43U A44U | 0.141
A35U C66G | 0.0865
A43G A44C | 0.0882
G32A C65U | 0.174
A39C U63G | 0.122
A28U A35C | 0.704

Variant | self-cleavage
G21A A35U | 0.653
C3U A23G | 0.325
C18G A45U | 0.228
A11C G56U | 0.0715
G34C G56C | 0.37
C12G U53G | 0.562
U5A G21U | 0.322
A26G G56U | 0.151
A26G G56C | 0.14
A23C A64U | 0.118
A31C A45G | 0.0362
A36C U58C | 0.685
C12A U33C | 0.166
G1U C46A | 0.106
A41C A64C | 0.285
G25C U67G | 0.152
C4U C65A | 0.374
U52C U60G | 0.55
C12G A41C | 1.21
U2G C38A | 0.143
C18G G25U | 0.47
C6U C38G | 0.189
U9C A36G | 0.882
G13A G42U | 0.234

Variant | self-cleavage
A11C U20G | 1.04
G51C U53C | 0.828
C38A C65A | 0.198
U14G C37U | 0.547
G13U A30U | 0.164
U5G A36G | 0.166
U53G A71G | 0.73
A23U G69U | 0.247
A49G U55A | 0.431
C46G A49U | 0.0713
G1U G13C | 0.151
G29A G56C | 0.166
A30G U60A | 0.125
G25C A47U | 0.0432
U2A A71U | 0.186
U67C G69U | 0.147
U7A C16A | 0.911
G15A A41C | 1.08
A61G U70A | 0.154
C3G A22G | 0.264
G1C A45G | 0.0824
A24C C46U | 0.142
C12U U33C | 0.187
U7G C12G | 0.658

Variant | self-cleavage
C16A G68C | 0.176
A22U A64C | 0.113
G27U G51C | 0.158
A28G G57A | 0.19
A28G G57U | 0.36
C3G U63A | 0.108
C4G G57A | 0.103
G19A G27C | 0.321
A23C G68U | 0.262
A23C G68C | 0.138
C48G A61C | 0.0868
U8C U20G | 0.439
G1C A24G | 0.129
G15A U70A | 0.689
U14A G34A | 1.31
A28G A59U | 0.32
G21A A45G | 0.177
U20A U55A | 0.252
C12U G27A | 0.328
G34U U53A | 1.46
C4G C37A | 0.209
C3G U20G | 0.28
G54A U60A | 0.409
A31U A61U | 0.138

Variant | self-cleavage
G15A A36U | 0.673
U7G C66U | 0.355
G25C C66G | 0.217
U8A U58C | 0.913
G19C A22G | 0.866
G21U C48U | 0.101
G19A G21U | 0.727
C16G A39U | 0.355
A44G A59C | 0.179
A30U A35C | 0.0881
U14C A59U | 0.081
A11G G54A | 0.487
U8A G21U | 0.691
A39U | 0.424
C38U C65U | 0.12
C37G U52G | 0.377
U60C A61U | 0.296
G21C U33C | 0.145
A45C A71U | 0.184
G34A G69C | 0.402
A61C A64U | 0.179
G56C U70A | 0.272
